Earlier results on 1 substance are cited in US20210079079A1, “SYSTEMS AND METHODS FOR LOCAL MODULATION OF WNT SIGNALING” (Ortheus, Inc., priority 2018, published 2021).

The conditions of this series: in vivo; cited from earlier work.

Consider “DKK1: a secreted protein that inhibits canonical Wnt signaling”, for which the elimination half-life entry was “less than 30 minutes”.
